The values that follow come from US20090191584, “Transcriptional repression of sodium-iodide symporter in thyroid carcinoma” (UNIVERSITY OF KENTUCKY RESEARCH FOUNDATION, published 2009).

The target of this series is PARP-1 (commercial) (Homo sapiens, UniProt P09874 SEQ:1-1013). As to the kind of experiment: EMSA; 1.5 ug purified PARP-1, no shift. The settings on record: tags: Trevigen; label: 32P. As for the experimental part: To evaluate whether purified PARP-1 is associated with NRBS, Applicants performed EMSA using commercial PARP-1 and radiolabeled Probe A (FIG. 18, lane 3). […] As PARP-1 was reported to bind to DNA using its N-terminal domain, the N-terminal DNA-binding domain (1-372 aa) from human PARP-1 were stably transfected into KAK-1 cells. Nuclear extract from multiple pooled positive clones from this transfection or a single positive clone from the same transfection experiment were incubated with labeled Probe A and subjected to EMSA (FIG. 18; lanes 6 & 10, respectively). The gel-shift bands produced were not appreciably different from those produced by nuclear extract from KAK-1 cells transfected with the empty vector (pCR3.1; lane 8) or those produced by parental KAK-1 nuclear extract (lane 2). Addition of cold Probe A, in each case, competed similarly against their respective matched lanes (lanes 3, 7, 9, & 11).
Chain of PARP-1 (commercial) (P09874 2-1014): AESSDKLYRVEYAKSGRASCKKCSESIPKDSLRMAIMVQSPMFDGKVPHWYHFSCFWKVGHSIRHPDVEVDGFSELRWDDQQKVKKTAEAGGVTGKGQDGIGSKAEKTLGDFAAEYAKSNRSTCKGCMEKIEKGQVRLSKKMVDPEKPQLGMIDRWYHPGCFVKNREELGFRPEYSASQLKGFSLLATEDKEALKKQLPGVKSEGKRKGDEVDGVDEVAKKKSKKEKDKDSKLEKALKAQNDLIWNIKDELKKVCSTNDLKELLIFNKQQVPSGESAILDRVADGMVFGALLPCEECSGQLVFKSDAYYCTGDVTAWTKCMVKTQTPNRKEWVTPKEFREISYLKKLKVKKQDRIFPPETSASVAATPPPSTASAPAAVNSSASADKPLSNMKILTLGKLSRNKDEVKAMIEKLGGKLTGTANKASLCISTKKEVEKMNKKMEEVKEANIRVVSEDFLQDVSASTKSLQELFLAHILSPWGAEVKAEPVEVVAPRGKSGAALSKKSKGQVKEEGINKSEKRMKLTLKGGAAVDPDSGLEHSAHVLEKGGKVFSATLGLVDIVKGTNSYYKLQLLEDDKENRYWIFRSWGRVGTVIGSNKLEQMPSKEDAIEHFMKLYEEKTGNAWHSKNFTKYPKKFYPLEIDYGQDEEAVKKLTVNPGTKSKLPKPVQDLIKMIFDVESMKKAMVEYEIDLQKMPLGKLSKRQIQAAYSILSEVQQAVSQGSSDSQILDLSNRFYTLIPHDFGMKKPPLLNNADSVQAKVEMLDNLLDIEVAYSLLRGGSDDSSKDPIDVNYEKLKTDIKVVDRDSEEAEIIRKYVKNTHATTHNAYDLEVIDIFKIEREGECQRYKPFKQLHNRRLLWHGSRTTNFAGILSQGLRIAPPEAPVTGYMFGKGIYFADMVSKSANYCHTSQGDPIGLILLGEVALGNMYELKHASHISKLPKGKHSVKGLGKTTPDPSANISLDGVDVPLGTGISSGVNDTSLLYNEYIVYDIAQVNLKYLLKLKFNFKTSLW

B1: Probe A (-684 to -565 hNIS) (dsDNA)
DNA 1: AAGCAGGCTGTGCAGGCTTGGATAGTGACATGCCCTTTTTGAGCCTCAATTTCCCCACCTGTCAACAGCAGACAGTGACAGCTGTGATCAGGGGATCACAGTGCATGGGGATGGGTGTGT
DNA 2: ACACACCCATCCCCATGCACTGTGATCCCCTGATCACAGCTGTCACTGTCTGCTGTTGACAGGTGGGGAAATTGAGGCTCAAAAAGGGCATGTCACTATCCAAGCCTGCACAGCCTGCTT
For the molecule B1, the binding result is reported as “no binding”.
